{"source": "paper PMC7112428", "about": "(International Journal of Biological Macromolecules, 2018)", "proteins": {"B1": {"name": "recombinant porcine aminopeptidase N ectodomain (residues 63-963) (domain or fragment, UniProt P15145 63-963, looked up)", "chain": "QSKPWNRYRLPTTLLPDSYNVTLRPYLTPNADGLYIFKGKSIVRLLCQEPTDVIIIHSKKLNYTTQGHMVVLRGVGDSQVPEIDRTELVELTEYLVVHLKGSLQPGHMYEMESEFQGELADDLAGFYRSEYMEGNVKKVLATTQMQSTDARKSFPCFDEPAMKATFNITLIHPNNLTALSNMPPKGSSTPLAEDPNWSVTEFETTPVMSTYLLAYIVSEFQSVNETAQNGVLIRIWARPNAIAEGHGMYALNVTGPILNFFANHYNTSYPLPKSDQIALPDFNAGAMENWGLVTYRENALLFDPQSSSISNKERVVTVIAHELAHQWFGNLVTLAWWNDLWLNEGFASYVEYLGADHAEPTWNLKDLIVPGDVYRVMAVDALASSHPLTTPAEEVNTPAQISEMFDSISYSKGASVIRMLSNFLTEDLFKEGLASYLHAFAYQNTTYLDLWEHLQKAVDAQTSIRLPDTVRAIMDRWTLQMGFPVITVDTKTGNISQKHFLLDSESNVTRSSAFDYLWIVPISSIKNGVMQDHYWLRDVSQAQNDLFKTASDDWVLLNVNVTGYFQVNYDEDNWRMIQHQLQTNLSVIPVINRAQVIYDSFNLATAHMVPVTLALDNTLFLNGEKEYMPWQAALSSLSYFSLMFDRSEVYGPMKKYLRKQVEPLFQHFETLTKNWTERPENLMDQYSEINAISTACSNGLPQCENLAKTLFDQWMSDPENNPIHPNLRSTIYCNAIAQGGQDQWDFAWGQLQQAQLVNEADKLRSALACSNEVWLLNRYLGYTLNPDLIRKQDATSTINSIASNVIGQPLAWDFVQSNWKKLFQDYGGGSFSFSNLIQGVTRRFSSEFELQQLEQFKKNNMDVGFGSGTRALEQALEKTKANIKWVKENKEVVLNWFIEHS"}}, "biological_target": "the molecule itself", "test": "SEC"}
{"protein": "B1", "values": [{"measurement": "stoichiometry N", "result": 2}]}
